Tested on: tau (substrate in the in vitro phosphorylation assay of FIG. 1A)

PKCζ (kinase in the in vitro phosphorylation assay of FIG. 1A)
incorporation of radioactive phosphate into tau (autoradiogram): when tau is incubated with PKCζ phosphate is incorporated into tau
